Laboratory results reported in the Immune Epitope Database (IEDB).

Columns and labels:
HLA-C*06:02 = experiment: IEDB peptide-MHC binding, purified MHC/direct/fluorescence; filed as Kd, often an IC50 or EC50 that approximates it; ≥ and ≤ were set here for values at or beyond the usual limits of such assays
HLA-A*02:01 [1] = experiment: IEDB peptide-MHC binding, purified MHC/competitive/radioactivity; ≥ and ≤ were set here for values at or beyond the usual limits of such assays
HLA-A*01:01 = experiment: IEDB peptide-MHC binding, purified MHC/direct/fluorescence; filed as Kd, often an IC50 or EC50 that approximates it; ≥ and ≤ were set here for values at or beyond the usual limits of such assays
HLA-A*11:01 = experiment: as above
HLA-A*31:01 = experiment: as above
HLA-A*69:01 = experiment: as above
HLA-B*08:01 = experiment: as above
HLA-B*15:17 = experiment: as above
HLA-B*18:01 = experiment: as above; details: source organism: Marburg virus - Musoke, Kenya, 1980
HLA-B*57:01 = experiment: as above
HLA-B*58:01 = experiment: as above
HLA-A*26:02 = experiment: IEDB peptide-MHC binding, purified MHC/competitive/fluorescence; filed as Kd, often an IC50 or EC50 that approximates it; ≥ and ≤ were set here for values at or beyond the usual limits of such assays; details: source organism: Orthomarburgvirus marburgense
HLA-A*30:01 = experiment: as above; details: source organism: Orthomarburgvirus marburgense
HLA-B*07:02 [2] = experiment: as above
HLA-B*15:01 [3] = experiment: as above
HLA-B*27:05 [4] = experiment: as above
HLA-C*05:01 = experiment: IEDB peptide-MHC binding, purified MHC/direct/fluorescence; filed as Kd, often an IC50 or EC50 that approximates it; ≥ and ≤ were set here for values at or beyond the usual limits of such assays
HLA-B*15:42 = experiment: IEDB peptide-MHC binding, purified MHC/competitive/fluorescence; filed as Kd, often an IC50 or EC50 that approximates it; ≥ and ≤ were set here for values at or beyond the usual limits of such assays; details: source organism: Mycobacterium tuberculosis C
HLA-B*45:06 = experiment: as above; details: source organism: Mycobacterium tuberculosis C
HLA-B*83:01 = experiment: as above; details: source organism: Mycobacterium tuberculosis C
HLA-A*23:01 = experiment: IEDB peptide-MHC binding, purified MHC/direct/fluorescence; filed as Kd, often an IC50 or EC50 that approximates it; ≥ and ≤ were set here for values at or beyond the usual limits of such assays; details: source organism: Vibrio cholerae
HLA-A*24:03 = experiment: as above; details: source organism: Vibrio cholerae
HLA-C*03:03 = experiment: as above
HLA-C*07:02 = experiment: as above; details: source organism: Vibrio cholerae AM-19226
HLA-C*14:02 = experiment: as above
HLA-C*15:02 = experiment: as above
HLA-B*46:01 [5] = experiment: IEDB peptide-MHC binding, purified MHC/competitive/fluorescence; filed as Kd, often an IC50 or EC50 that approximates it; ≥ and ≤ were set here for values at or beyond the usual limits of such assays; details: source organism: Vibrio cholerae AM-19226
HLA-C*12:03 = experiment: IEDB peptide-MHC binding, purified MHC/direct/fluorescence; filed as Kd, often an IC50 or EC50 that approximates it; ≥ and ≤ were set here for values at or beyond the usual limits of such assays
HLA-B*39:01 = experiment: IEDB peptide-MHC binding, purified MHC/competitive/fluorescence; filed as Kd, often an IC50 or EC50 that approximates it; ≥ and ≤ were set here for values at or beyond the usual limits of such assays
HLA-B*40:01 [6] = experiment: as above
HLA-A*02:01 [7] = experiment: IEDB peptide-MHC binding, purified MHC/direct/fluorescence; filed as Kd, often an IC50 or EC50 that approximates it; ≥ and ≤ were set here for values at or beyond the usual limits of such assays
HLA-A*02:03 = experiment: as above; details: source organism: Variola virus
HLA-B*35:01 = experiment: IEDB peptide-MHC binding, purified MHC/competitive/fluorescence; filed as Kd, often an IC50 or EC50 that approximates it; ≥ and ≤ were set here for values at or beyond the usual limits of such assays; details: source organism: Camelpox virus M-96
HLA-A*03:01 = experiment: IEDB peptide-MHC binding, purified MHC/direct/fluorescence; filed as Kd, often an IC50 or EC50 that approximates it; ≥ and ≤ were set here for values at or beyond the usual limits of such assays; details: source organism: Lake Victoria marburgvirus - Popp
HLA-A*26:01 = experiment: as above; details: source organism: Orthomarburgvirus marburgense
HLA-A*68:02 = experiment: as above; details: source organism: Lake Victoria marburgvirus - Popp
HLA-B*07:02 [8] = experiment: as above; details: source organism: Lake Victoria marburgvirus - Popp
HLA-B*08:03 = experiment: as above; details: source organism: Orthomarburgvirus marburgense
HLA-B*15:01 [9] = experiment: as above; details: source organism: Lake Victoria marburgvirus - Popp
HLA-B*27:05 [10] = experiment: as above; details: source organism: Lake Victoria marburgvirus - Popp
HLA-B*40:01 [11] = experiment: as above; details: source organism: Lake Victoria marburgvirus - Popp
HLA-B*46:01 [12] = experiment: as above; details: source organism: Lake Victoria marburgvirus - Popp
HLA-B*48:01 = experiment: as above; details: source organism: Lake Victoria marburgvirus - Popp
HLA-A*02:06 = experiment: IEDB peptide-MHC binding, purified MHC/competitive/fluorescence; filed as Kd, often an IC50 or EC50 that approximates it; ≥ and ≤ were set here for values at or beyond the usual limits of such assays; details: source organism: Orthomarburgvirus marburgense
[13] = source organism: Marburg virus - Musoke, Kenya, 1980
[14] = source organism: Orthomarburgvirus marburgense
[15] = source organism: Vibrio cholerae AM-19226
[16] = source organism: Rickettsia massiliae MTU5
[17] = source organism: Mycobacterium tuberculosis H37Ra
[18] = source organism: Escherichia coli O139:H28 str. E24377A
[19] = source organism: Pseudomonas aeruginosa
[20] = source organism: Camelpox virus CMS
[21] = source organism: Camelpox virus M-96
[22] = source organism: Lake Victoria marburgvirus - Popp

YRYSLSSDL
Kd (HLA-C*06:02; source organism: Vaccinia virus WR): 4 nM

FLPVDFFPSI
IC50 (HLA-A*02:01 [1]; source organism: Hepatitis B virus): 35 nM

HMTEVVRRC
IC50 (HLA-A*02:01 [1]; source organism: Homo sapiens): 10200 nM

QGKQHLHSL
Kd (HLA-A*01:01; [13]): ≥ 20000 nM
Kd (HLA-A*11:01; [13]): ≥ 20000 nM
Kd (HLA-A*31:01; [13]): ≥ 20000 nM
Kd (HLA-A*69:01; [13]): ≥ 20000 nM
Kd (HLA-B*08:01; [13]): 212 nM
Kd (HLA-B*15:17; [13]): ≥ 20000 nM
Kd (HLA-B*18:01): ≥ 20000 nM
Kd (HLA-B*57:01; [13]): ≥ 20000 nM
Kd (HLA-B*58:01; [13]): ≥ 20000 nM
Kd (HLA-A*26:02): ≥ 20000 nM
Kd (HLA-A*30:01): ≥ 20000 nM
Kd (HLA-B*07:02 [2]; [14]): ≥ 20000 nM
Kd (HLA-B*15:01 [3]; [14]): 4000 nM

SPYNSRFESV
Kd (HLA-B*07:02 [2]; source organism: Influenza A virus): 3.4 nM

FRWTQSLRR
Kd (HLA-B*27:05 [4]; source organism: Mammarenavirus machupoense): 39.8 nM

YPRNGWPAL
Kd (HLA-C*05:01; source organism: Mycobacterium tuberculosis C): ≥ 20000 nM
Kd (HLA-B*15:42): ≥ 5000 nM
Kd (HLA-B*45:06): ≥ 5000 nM
Kd (HLA-B*83:01): 34.9 nM

YALPSAGAF
Kd (HLA-A*23:01): 445 nM
Kd (HLA-A*24:03): 290 nM
Kd (HLA-C*03:03; [15]): ≤ 1 nM
Kd (HLA-C*07:02): 404 nM
Kd (HLA-C*14:02; [15]): 46 nM
Kd (HLA-C*15:02; [15]): 386 nM
Kd (HLA-B*46:01 [5]): 34.5 nM

FMRFAFLSM
Kd (HLA-C*06:02; [16]): ≥ 20000 nM
Kd (HLA-C*12:03; [16]): 894 nM
Kd (HLA-C*15:02; [16]): ≥ 20000 nM

ILDAHSLYL
IC50 (HLA-A*02:01 [1]; source organism: Rift Valley fever virus): 1.3 nM

YQERFVLAL
Kd (HLA-B*27:05 [4]; [17]): 946 nM
Kd (HLA-B*39:01; [17]): 1.7 nM

RQGWARAML
Kd (HLA-B*15:01 [3]; [18]): 143 nM
Kd (HLA-B*27:05 [4]; [18]): 191 nM
Kd (HLA-B*39:01; [18]): ≥ 20000 nM
Kd (HLA-B*40:01 [6]; [18]): 313 nM

AYFATPASV
Kd (HLA-A*02:01 [7]; [19]): 2270 nM
Kd (HLA-A*31:01; [19]): 207 nM
Kd (HLA-A*69:01; [19]): 4370 nM
Kd (HLA-C*14:02; source organism: Pseudomonas aeruginosa 2192): ≤ 1 nM

VLMAVVLASL
IC50 (HLA-A*02:01 [1]; source organism: Homo sapiens): 45.7 nM

GEDAKLIAV
Kd (HLA-B*40:01 [6]; source organism: Escherichia coli 536): 3.8 nM

LMDENTYAM
Kd (HLA-A*02:01 [7]; [20]): ≤ 1 nM
Kd (HLA-A*02:03): 20 nM
Kd (HLA-A*69:01; [20]): 57.8 nM
Kd (HLA-C*03:03; [21]): 592 nM
Kd (HLA-C*05:01; [21]): 7 nM
Kd (HLA-C*12:03; [21]): ≥ 20000 nM
Kd (HLA-B*35:01): 0.2 nM

KNYPASLHK
Kd (HLA-A*01:01; [22]): ≥ 20000 nM
Kd (HLA-A*02:01 [7]; [22]): ≥ 20000 nM
Kd (HLA-A*03:01): 102 nM
Kd (HLA-A*11:01; [22]): 91.7 nM
Kd (HLA-A*26:01): ≥ 20000 nM
Kd (HLA-A*31:01; [22]): ≥ 20000 nM
Kd (HLA-A*68:02): ≥ 20000 nM
Kd (HLA-B*07:02 [8]): ≥ 20000 nM
Kd (HLA-B*08:01; [14]): ≥ 20000 nM
Kd (HLA-B*08:03): ≥ 20000 nM
Kd (HLA-B*15:01 [9]): ≥ 20000 nM
Kd (HLA-B*15:17; [22]): ≥ 20000 nM
Kd (HLA-B*27:05 [10]): ≥ 20000 nM
Kd (HLA-B*40:01 [11]): ≥ 20000 nM
Kd (HLA-B*46:01 [12]): ≥ 20000 nM
Kd (HLA-B*48:01): ≥ 20000 nM
Kd (HLA-B*57:01; [22]): ≥ 20000 nM
Kd (HLA-B*58:01; [22]): ≥ 20000 nM
Kd (HLA-A*02:06): 627 nM
Kd (HLA-A*26:02): ≥ 20000 nM

GLIDIAPHQISS
IC50 (HLA-A*02:01 [1]; [17]): 173 nM

KINIFMAFL
Kd (HLA-C*14:02; source organism: Taterapox virus): ≥ 20000 nM

EIRTFSFQL
Kd (HLA-B*07:02 [2]; source organism: Influenza A virus (A/duck/England/1/1956(H11N6))): ≥ 20000 nM
